Data on eight compounds can be found in PMC6409784, “Chlorambucil Conjugated Ugi Dendrimers with PAMAM-NH2 Core and Evaluation of Their Anticancer Activity” (Pharmaceutics, 2019).

A short description of data set [1]: Solubility of dendrimers. Particulars: at 20 mg/mL.
For data set [2], the system named is PC-3 cells. The data set is described as follows: cells. Particulars: Homo sapiens, PC-3, 72 h, read-out: IC50, CV assay, PC-3.
In data set [3] the test system is PC-3 cells. Briefly: cells. The settings on record: Homo sapiens, PC-3, 72 h, read-out: IC50, MTT assay, PC-3. Background: Formazan colour is commonly taken as a measure of viable cells.
Data set [4] deals with PC-3 prostate cancer cell line. The data set is described as follows: Viability by CV and MTT assays (fast screening / dose response). In kind it is cell-based, human. Particulars: 20 µM free chlorambucil, 72 h.
Data set [5] deals with NIH3T3 fibroblasts. Briefly: CV viability assay on non-cancerous fibroblasts. The format is cell-based, mouse. Particulars: at the IC50 determined for PC-3 (7.3 µM), CV and MTT, 72 h.
Data set [6] has as its system PC-3 cells. The settings on record: read-out: IC50, CV assay, PC-3, 72 h.
Data set [7] deals with PC-3 cells. The settings on record: read-out: IC50, MTT assay, PC-3, 72 h.
Data set [8] deals with NIH3T3 fibroblasts. The settings on record: read-out: IC50 NIH3T3, MTT; NIH3T3 mouse fibroblasts, 72 h, MTT assay.

Where two headings read alike, the source gives them in different places.

As to `COC(=O)CCCNC(=O)C(C(C)C)N(CCNC(=O)CCN(CCC(=O)NCCN(C(=O)CCCC[C@@H]1SC[C@@H]2NC(=O)N[C@@H]21)C(C(=O)NCCCC(=O)OC)C(C)C)CCN(CCC(=O)NCCN(C(=O)CCCC[C@@H]1SC[C@@H]2NC(=O)N[C@@H]21)C(C(=O)NCCCC(=O)OC)C(C)C)CCC(=O)NCCN(C(=O)CCCc1ccc(N(CCCl)CCCl)cc1)C(C(=O)NCCCC(=O)OC)C(C)C)C(=O)CCCC[C@@H]1SC[C@@H]2NC(=O)N[C@@H]21` (some centres unmarked) [Dendrimer 5a], in data set [1], the Solubility entry is on record as “Low”.
With `COC(=O)CCCNC(=O)C(C(C)C)N(CCNC(=O)CCN(CCC(=O)NCCN(C(=O)CCCc1ccc(N(CCCl)CCCl)cc1)C(C(=O)NCCCC(=O)OC)C(C)C)CCN(CCC(=O)NCCN(C(=O)CCCc1ccc(N(CCCl)CCCl)cc1)C(C(=O)NCCCC(=O)OC)C(C)C)CCC(=O)NCCN(C(=O)CCCc1ccc(N(CCCl)CCCl)cc1)C(C(=O)NCCCC(=O)OC)C(C)C)C(=O)CCCc1ccc(N(CCCl)CCCl)cc1` (centres unmarked) [Dendrimer 2a], the Solubility entry in data set [1] is “Low”.
For `COC(=O)CCCNC(=O)C(C(C)C)N(CCNC(=O)CCN(CCC(=O)NCCN(C(=O)CCCc1ccc(N(CCCl)CCCl)cc1)C(C(=O)NCCCC(=O)OC)C(C)C)CCN(CCC(=O)NCCN(C(=O)CCCc1ccc(N(CCCl)CCCl)cc1)C(C(=O)NCCCC(=O)OC)C(C)C)CCC(=O)NCCN(C(=O)CCCc1ccc(N(CCCl)CCCl)cc1)C(C(=O)NCCCC(=O)OC)C(C)C)C(=O)CCCC[C@@H]1SC[C@@H]2NC(=O)N[C@@H]21` (some centres unmarked) [Dendrimer 3a], in data set [1], the Solubility result is on record as “Low”.
In the case of `CC(C)C(C(=O)NCCOCCOCCNC(=O)OC(C)(C)C)N(CCNC(=O)CCN(CCC(=O)NCCN(C(=O)CCCc1ccc(N(CCCl)CCCl)cc1)C(C(=O)NCCOCCOCCNC(=O)OC(C)(C)C)C(C)C)CCN(CCC(=O)NCCN(C(=O)CCCc1ccc(N(CCCl)CCCl)cc1)C(C(=O)NCCOCCOCCNC(=O)OC(C)(C)C)C(C)C)CCC(=O)NCCN(C(=O)CCCc1ccc(N(CCCl)CCCl)cc1)C(C(=O)NCCOCCOCCNC(=O)OC(C)(C)C)C(C)C)C(=O)CCCc1ccc(N(CCCl)CCCl)cc1` (centres unmarked) [Dendrimer 1a], the Solubility entry in data set [1] was “Low”.
For the compound `O=C(O)CCCc1ccc(N(CCCl)CCCl)cc1` [chlorambucil], the IC50 in data set [2] and in data set [3] was > 100 µM throughout. The “activity of free agent on PC-3 cells” value in data set [4] was “almost no activity”.
Turning to `CC(C)C(C(=O)NCCOCCOCCN)N(CCNC(=O)CCN(CCC(=O)NCCN(C(=O)CCCc1ccc(N(CCCl)CCCl)cc1)C(C(=O)NCCOCCOCCN)C(C)C)CCN(CCC(=O)NCCN(C(=O)CCCc1ccc(N(CCCl)CCCl)cc1)C(C(=O)NCCOCCOCCN)C(C)C)CCC(=O)NCCN(C(=O)CCCc1ccc(N(CCCl)CCCl)cc1)C(C(=O)NCCOCCOCCN)C(C)C)C(=O)CCCc1ccc(N(CCCl)CCCl)cc1` (centres unmarked) [Dendrimer 1b], in data set [5], the “effect on NIH3T3 cell growth” value was “did not affect NIH3T3 cell growth at all”. Also, the IC50 worked out at 3.65 ± 0.56 µM in data set [6], 7.29 ± 1.18 µM in data set [7] and 74.4 ± 2.31 µM in data set [8]. Moreover, in data set [1], the Solubility result is listed as “High”.
Take `CC(C)C(C(=O)NCCCC(=O)O)N(CCNC(=O)CCN(CCC(=O)NCCN(C(=O)CCCc1ccc(N(CCCl)CCCl)cc1)C(C(=O)NCCCC(=O)O)C(C)C)CCN(CCC(=O)NCCN(C(=O)CCCc1ccc(N(CCCl)CCCl)cc1)C(C(=O)NCCCC(=O)O)C(C)C)CCC(=O)NCCN(C(=O)CCCc1ccc(N(CCCl)CCCl)cc1)C(C(=O)NCCCC(=O)O)C(C)C)C(=O)CCCC[C@@H]1SC[C@@H]2NC(=O)N[C@@H]21` (some centres unmarked) [Dendrimer 3b]: the Solubility result in data set [1] was “High”.
Consider `CC(C)C(C(=O)NCCCC(=O)O)N(CCNC(=O)CCN(CCC(=O)NCCN(C(=O)CCCC[C@@H]1SC[C@@H]2NC(=O)N[C@@H]21)C(C(=O)NCCCC(=O)O)C(C)C)CCN(CCC(=O)NCCN(C(=O)CCCC[C@@H]1SC[C@@H]2NC(=O)N[C@@H]21)C(C(=O)NCCCC(=O)O)C(C)C)CCC(=O)NCCN(C(=O)CCCc1ccc(N(CCCl)CCCl)cc1)C(C(=O)NCCCC(=O)O)C(C)C)C(=O)CCCC[C@@H]1SC[C@@H]2NC(=O)N[C@@H]21` (some centres unmarked) [Dendrimer 5b], for which the Solubility entry in data set [1] is listed as “High”.

For orientation: IC50 means the concentration needed to halve the response being measured.
